T1: amphyphisin SH3 (AMPH_HUMAN), P49418
T1 chain: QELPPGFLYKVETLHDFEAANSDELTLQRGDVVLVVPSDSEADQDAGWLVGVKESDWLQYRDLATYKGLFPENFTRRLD


Legend:
[1] = molecular target: endophilin SH3 (SH3G2_HUMAN), Q99962; test: SPOT array
[2] = molecular target: T1, amphyphisin SH3 (AMPH_HUMAN), P49418; test: SPOT array

Row | Binder | normalised SPOT signal, Boehringer light units (BLU); mean over the file's lines of this peptide [1] | normalised SPOT signal, Boehringer light units (BLU); mean over the file's lines of this peptide [2]
1 | QKQDLRRPKIHGAV [Q9UII6 5-18] | 85.7 | 56.3
2 | QGSAPLRPFRSGEG [Q9H6J3 73-86] | 1840 | 7120
3 | QLVILRRPERPMED [Q96NX7 585-598] | 16.7 | 31.8
4 | QIRILKRPTSNGVV [Q9Y403 46-59] | 148 | 6.4
5 | QLWDIRRPDRSERM [Q96S15 319-332] | 692 | 2300
6 | QPLGPAKPPAQQTG [Q9Y6V0 327-341] | 63.4 | 52.7
7 | QLRPPPKPPLPAPD [Q9BZE0 329-343] | 4110 | 825
8 | QKFSLRRPLQTAMI [Q96JF9 85-98] | 73.5 | 64.3
9 | ATSHFYRPPRSSHS [Q9ULC8 29-42] | 218 | 8300
10 | QPALLKRPQLELYV [Q9Y477 106-119] | 52.6 | 28.2
11 | QKTRPIKPPPDSQE [Q9H5W5 105-119] | 36.3 | 42.1
12 | QILSPPRPPTSPSF [Q9BRZ8 226-240] | 4830 | 75.8
13 | QLQAPDRPSRELLQ [Q9H6Q4 405-418] | 377 | 3320
14 | ATAFLQRPSRAGSL [Q9C0A3 966-979] | 298 | 15700
15 | QPDGPARPPGMAPS [Q96KZ1 72-86] | 39.7 | 63.5
16 | QKDVIRRPTFVPQW [Q9P0Y7 137-150] | 91.5 | 22.8
17 | QLFTPNRPKKREIY [Q9BWY5 227-240] | 698 | 165

More lines, now with the values ahead:

Row | normalised SPOT signal, Boehringer light units (BLU); mean over the file's lines of this peptide [1] | normalised SPOT signal, Boehringer light units (BLU); mean over the file's lines of this peptide [2] | Binder
18 | 83.1 | 31.9 | QGIEFLRPLKTTTP [P42357 562-575]
19 | 68.3 | 59.8 | QPGSPRKPPMDEKS [P08263 197-211]
20 | 124 | 33.6 | QGASIRRPSSGNAS [Q13267 138-151]
21 | 124 | 28.6 | QPLEPKRPPPPRPV [O43426 1101-1114]
22 | 0 | 35.7 | QGPAPRRPWERGDG [P16066 284-297]
23 | 73 | 565 | QHYTLGRPGRAPRR [O60275 1399-1412]
24 | 1510 | 43.3 | QNRPLIRPKKRLIV [P15976 237-250]
25 | 6570 | 36.6 | QGPAPRRPTTDQIS [O43566 535-548]
26 | 2220 | 1010 | QGAGPSRPPTPGRN [O95398 328-342]
27 | 51.3 | 37.1 | QGGRPHRPPQGQPP [Q04118 294-308]
28 | 46.1 | 36.6 | QPGSPRKPPADAKA [Q16772 198-212]
29 | 2940 | 227 | QLSSPIRPPKYYTY [O43163 368-382]
30 | 133 | 116 | QFPKLDRPTKQMRE [P78524 721-734]
31 | 665 | 1460 | QNQSIRRPSRQLAP [O75116 1371-1384]

Source: publication PMC314469, “Protein Interaction Networks by Proteome Peptide Scanning” (PLoS Biology, 2004)
